Here are results for 1 protein from article PMC8715544 (JACS Au, 2021).

The data set deals with the molecule itself. The experiment in a line: SEC. A general note: SEC sorts molecules by how far they enter the pores of the column.

B1: Escherichia coli methionine adenosyltransferase eMAT (enzyme)
chain: MAKHLFTSESVSEGHPDKIADQISDAVLDAILEQDPKARVACETYVKTGMVLVGGEITTSAWVDIEEITRNTVREIGYVHSDMGFDANSCAVLSAIGKQSPDINQGVDRADPLEQGAGDQGLMFGYATNETDVLMPAPITYAHRLVQRQAEVRKNGTLPWLRPDAKSQVTFQYDDGKIVGIDAVVLSTQHSEEIDQKSLQEAVMEEIIKPILPAEWLTSATKFFINPTGRFVIGGPMGDCGLTGRKIIVDTYGGMARHGGGAFSGKDPSKVDRSAAYAARYVAKNIVAAGLADRCEIQVSYAIGVAEPTSIMVETFGTEKVPSEQLTLLVREFFDLRPYGLIQMLDLLHPIYKETAAYGHFGREHFPWEKTDKAQLLRDAAGLK
As a reminder, the stoichiometry N is a count of units in the complex or per binding partner. Turning to B1, the “stoichiometry N” value is 4.
